For one data set, the target named is T1, A box (human, UniProt P09429 1-85, C23S;C45S;S35C).
T1 sequence: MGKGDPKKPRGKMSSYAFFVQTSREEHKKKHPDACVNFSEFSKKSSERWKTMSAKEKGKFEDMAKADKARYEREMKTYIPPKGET
Kind of data set: smFRET.

The target in a further data set is B box (human, UniProt P09429 83-166, C106S;A137C). Kind of data set: smFRET.
In data set [1] the target is T2, AB (HMGB1 without C-terminal tail) (human, UniProt P09429 1-166, C23S;C45S;C106S;S35C). Description: smFRET.
Data set [2] concerns the target T3, FL HMGB1 (human, UniProt P09429 1-215, C23S;C45S;C106S;E204C). Kind of data set: smFRET.
A further data set has as its target AB-F38A (human, UniProt P09429 1-166, C23S;F38A;C45S;C106S;S35C). Description: smFRET.
Data set [3] has as its target T2, AB (HMGB1 without C-terminal tail). Description: EMSA.
Data set [4] has as its target T3, FL HMGB1. Kind of data set: EMSA. (In EMSA bound probe runs differently from free probe, usually more slowly.)
Target sequence in this assay (P09429 whole entry C23S/C45S/C106S/E204C): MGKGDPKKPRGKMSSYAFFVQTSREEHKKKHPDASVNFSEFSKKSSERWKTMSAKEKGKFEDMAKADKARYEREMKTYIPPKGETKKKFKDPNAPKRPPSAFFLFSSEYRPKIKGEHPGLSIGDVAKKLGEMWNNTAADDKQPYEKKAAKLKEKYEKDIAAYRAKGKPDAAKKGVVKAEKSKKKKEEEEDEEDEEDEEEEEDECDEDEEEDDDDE

The Kd is the equilibrium constant for the complex coming apart. A higher Kd goes with weaker binding.

Sequence of B box (P09429 83-166 C106S/A137C): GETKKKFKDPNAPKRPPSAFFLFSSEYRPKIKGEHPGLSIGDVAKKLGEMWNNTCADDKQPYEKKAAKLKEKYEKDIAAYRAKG

B1: smFRET DNA (18 bp with 19 nt 3' overhang) (dsDNA)
DNA 1: CAGGCTATAAAAGGGACG
DNA 2: CGTCCCTTTTATAGCCTGATACAAGCAGCAGTCACCA
For the molecule B1, the binding result (in the data set with A box; in the data set with B box; in data set [1]; with FL HMGB1 [2]; with AB-F38A) was “binds” in each case.

B2: 18 bp dsDNA (EMSA) (dsDNA)
DNA 1: CAGGCTATAAAAGGGACG
DNA 2: CGTCCCTTTTATAGCCTG
Consider B2, for which the results for the Kd (in data set [3]; with FL HMGB1 [4]) were 5 nM and 10 nM, respectively.
